The text below walks through data of article PMC11161652, “ASXLs binding to the PHD2/3 fingers of MLL4 provides a mechanism for the recruitment of BAP1 to active enhancers” (Nature Communications, 2024).

As usually defined, the Kd is a measure of binding affinity in units of concentration.

For one assay, the target named is T1, MLL4PHD2/3 (Homo sapiens, UniProt O14686).
T1 construct: MLL4 (aa 227-324); GST (N, cleaved yes); made in house; host or cells: E. coli BL21-CodonPlus
T1 sequence (O14686 227-324): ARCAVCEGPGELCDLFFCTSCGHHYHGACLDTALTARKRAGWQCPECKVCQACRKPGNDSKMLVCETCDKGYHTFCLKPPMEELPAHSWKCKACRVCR
Description: NMR titration binding, WT MLL4PHD2/3. To be noted: 0.1 mM protein; for binding in NMR titration (CSPs): 1H,15N HSQC, pH 6.8, 298 K, in words. On the procedure:
(§1) All constructs were expressed in BL21-CodonPlus competent cells.
(§2) For NMR titration experiments, ^1H,^15N HSQC spectra of 0.1 mM uniformly ^15N-labeled WT or mutated MLL4PHD2/3, MLL3PHD2/3 or MLL3PHD4 were recorded while WT or mutated ASXL2 (aa 650-670, 650-664, 656-670) and ASXL3 (aa 1047-1067) peptides (synthesized by SynPeptide) or MLL3PHD2/3 were added stepwise. All experiments were carried out in 20 mM Tris buffer (pH 6.8), 150 mM NaCl, and 3 mM DTT, containing 7% D2O. The dissociation constants (Kds) were determined by a nonlinear least-squares analysis in GraphPad Prism using the equation:1 △δ=△δmaxL+P+Kd−L+P+Kd^2−4PL/2P where [L] is concentration of the peptide, [P] is concentration of the protein, Δδ is the observed chemical shift change, and Δδmax is the normalized chemical shift change at saturation. Normalized chemical shift changes were calculated using the equation Δδ=△δH^2+△sn/5^2 (2), where Δδ is the change in chemical shift in parts per million (ppm).

The next assay concerns the target T2, MLL3PHD2/3 (Homo sapiens, UniProt Q8NEZ4).
T2 construct: human MLL3 (aa 342-439); GST (N, cleaved yes); made in house; host or cells: E. coli BL21-CodonPlus
T2 sequence (Q8NEZ4 342-439): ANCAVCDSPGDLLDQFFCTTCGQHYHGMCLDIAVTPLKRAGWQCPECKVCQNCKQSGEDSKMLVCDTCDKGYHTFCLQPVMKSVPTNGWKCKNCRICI
The experiment in a line: NMR titration binding, WT MLL3PHD2/3. Conditions: 0.1 mM protein. As for the experimental part: as §1, §2

For the next assay, the system named is GST-MLL4PHD2/3. Description: GST pull-down, WT MLL4PHD2/3. It is filed as binding, human. Conditions: WT GST-MLL4PHD2/3; HEK293FT lysate, 3 h at 4 °C, western blot; n = 3. As for the experimental part: (§3) Pull-down assays were performed by mixing resin-bound GST-MLL3PHD2/3 and GST-MLL4PHD2/3 (wild type and mutants) with lysates of HEK293FT expressing Myc-ASXL1, Myc-ASXL2 or Myc-ASXL2ΔMBH. Pellets of HEK293FT cells transfected with the appropriate pDEST expression construct (15 μg/dish using polyethylenimine (PEI)) were lysed with 10 times their volume of lysis buffer (50 mM Tris pH 7.3, 100 mM NaCl, 1 mM DTT, 1 mM EDTA, 1 mM PMSF, 0.1% Tween20, 1/100 anti-protease (Sigma)) and sonicated with a probe sonicator (Branson digital sonifier 450) calibrated at 40% amplitude for 3–4 rounds during 40–60 s. Lysates were then centrifuged in a Sorvall Lynx 6000 (rotor: F21-8x50Y) at 15,000 RPM during 20 min. Approximatively 9 μg of purified GST-fusion proteins bound to GSH resin (Sigma, G4510) were used for each condition. Final volume of GSH resin was adjusted to 30 μl per condition with empty GSH beads and incubated with 1.5 mL of HEK293FT lysate expressing Myc-ASXL1, Myc-ASXL2 or Myc-ASXL2ΔMBH for 3 h at 4 °C on a rotative system. A fraction of the reaction mixture (80 μL) was collected as the input. After the incubation, beads were washed 5 times and mixed with 100 μL of Laemmli buffer. Samples were loaded on 8% or 15% SDS-acrylamide gels and processed for western blotting.

The test system of a further assay is GST-MLL3PHD2/3. Description: GST pull-down, WT MLL3PHD2/3. Type of assay: binding, human. Conditions: WT GST-MLL3PHD2/3; HEK293FT lysate, 3 h at 4 °C, western blot; n = 3. As for the experimental part:
as §3
For orientation: A western blot detects proteins with antibodies after separation by electrophoresis.

Assay [1] relates to MLL4PHD2/3 or MLL3PHD2/3 mutants. The experiment in a line: GST pull-down, mutated MLL3/4PHD2/3. It is filed as binding, human. Conditions: mutated GST-MLL3/4PHD2/3; HEK293FT lysate, 3 h at 4 °C, western blot; n = 3. On the procedure:
as §3

The target of assay [2] is T3, PHD2 and PHD3 fingers of human MLL4 (aa 227-324) (human, UniProt O14686 227-324).
T3 construct: PHD2 and PHD3 fingers of human MLL4 (KMT2D), aa 227-324; also called MLL4_(PHD2/3); MLL4 PHD2/3; source: E. coli BL21-CodonPlus, purified (glutathione agarose, PreScission cleavage; unlabeled proteins also SEC)
T3 sequence (looked up): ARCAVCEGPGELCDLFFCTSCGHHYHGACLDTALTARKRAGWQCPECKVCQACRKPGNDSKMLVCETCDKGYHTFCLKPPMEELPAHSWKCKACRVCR
Description: other fluorescence titration; tryptophan fluorescence, 25 °C; 1.0 µM MLL4 PHD2/3 or MLL3 PHD2/3 with increasing peptide; excitation 295 nm; 20 mM Tris pH 7.2, 150 mM NaCl, 1 mM TCEP, 0.02% Tween20; average of three measurements. Conditions: both partners purified.

Assay [3] addresses T4, PHD2 and PHD3 fingers of human MLL3 (aa 342-439) (human, UniProt Q8NEZ4 342-439).
T4 construct: PHD2 and PHD3 fingers of human MLL3 (KMT2C), aa 342-439; 15N-labelled for NMR titrations; also used unlabelled as the titrant against MLL3 PHD4; also called MLL3_(PHD2/3); MLL3 PHD2/3; source: E. coli BL21-CodonPlus, purified (glutathione agarose, PreScission cleavage; unlabeled proteins also SEC)
T4 sequence (looked up): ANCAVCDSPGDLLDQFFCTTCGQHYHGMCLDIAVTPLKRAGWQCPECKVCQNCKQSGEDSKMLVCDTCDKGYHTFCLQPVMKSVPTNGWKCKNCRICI
Described as above. To be noted: both partners purified.

The target in assay [4] is T5, PHD2 and PHD3 fingers of human MLL3 (aa 342-439) (human, UniProt Q8NEZ4 342-439).
T5 chain: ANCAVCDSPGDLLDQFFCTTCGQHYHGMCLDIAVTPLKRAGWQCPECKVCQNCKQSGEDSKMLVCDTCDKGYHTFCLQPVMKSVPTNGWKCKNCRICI

Assay [5] addresses T3, PHD2 and PHD3 fingers of human MLL4 (aa …). The experiment in a line: not stated; fluorescence spectroscopy or NMR: the legends of Fig. 3c and Fig. 4b say that values marked (a) are from NMR and the others from fluorescence; the text does not tell which for these pairs. To be noted: both partners purified.
[6] abbreviates: NMR, 1H,15N HSQC titration, 20 mM Tris pH 6.8, 150 mM NaCl, 298 K.

Where two headings read alike, the source gives them in different places. Ends that are not written are not given here.

“ASXL2 K661E: K661E mutated ASXL2 peptide (residues 650-670) (NRTGARTLADIEAKAQLVKAQ)”: the “binding in NMR titration (CSPs)” value with MLL4PHD2/3 is “abrogated binding”; with MLL3PHD2/3 (1H,15N HSQC, pH 6.8, 298 K, in words), “did not form the complex”. Besides, the Kd result in the assay with MLL4PHD2/3 (setting [6]) and with MLL3PHD2/3 (setting [6]) was “no binding” throughout.
As for RNTGARTLADIKARAQQARAQ [ASXL3 1047-1067], the “binding in NMR titration (CSPs)” value at MLL4PHD2/3 was “large CSPs, confirming formation of the complex”.
With “full-length ASXL1: full-length ASXL1 expressed in HEK293FT cells”, the association in pull-down entry was “detected” in the assay on GST-MLL4PHD2/3, “detected” in the assay on GST-MLL3PHD2/3 and “not with the MLL4PHD2/3 or MLL3PHD2/3 mutants” in assay [1].
On to “ASXL1 peptide: ASXL1 peptide; the ASXL1 region encompassing residues 607-627 (GWTGARTLADIKARALQVRGA)”, for which the “binding in NMR titration (CSPs)” value with MLL4PHD2/3 is given as “large CSPs, confirming formation of the complex”.

B1: ASXL2 peptide, residues 650-664 (peptide, UniProt Q76L83 650-664, looked up)
peptide: NRTGARTLADIKAKA
notes: ASXL2, residues 650-664; also called ASXL2_(650-664); ASXL2 (aa 650-664); source: synthetic peptide (SynPeptide)
With B1, the Kd in [2] is 98 µM; in [3], 28 µM.

B2: ASXL2 peptide (aa 650-670) I660E (peptide, UniProt Q76L83 650-670, looked up)
peptide: NRTGARTLADEKAKAQLVKAQ
notes: ASXL2, residues 650-670; also called I660E mutant of ASXL2; source: synthetic peptide (SynPeptide)
Regarding B2, the Kd in assay [4] worked out at 84 µM; in assay [5], 1100 µM. In addition, the binding result in assay [3] is on record as “binds”.

B3: ASXL2 peptide, residues 656-670 (peptide, UniProt Q76L83 656-670, looked up)
peptide: TLADIKAKAQLVKAQ
notes: ASXL2, residues 656-670; also called ASXL2_(656-670); ASXL2 (aa 656-670); source: synthetic peptide (SynPeptide)
For B3, the figures for the Kd in assay [2] and in assay [3] were 700 µM and 133 µM, respectively.

B4: ASXL3 peptide (aa 1047-1067) (peptide, UniProt Q9C0F0 1047-1067, looked up)
peptide: RNTGARTLADIKARAQQARAQ
notes: ASXL3, residues 1047-1067; also called ASXL3 (aa 1047-1067); source: synthetic peptide (SynPeptide)
In the case of B4, the Kd worked out at 1.4 µM in assay [2] and 0.9 µM in [3].
